Experimental data as given in the supplement of paper PMC7877785.
± gives the uncertainty stated by the source.

Experiment: self-splicing fitness, log relative to wild type (ln ratio); higher = more splicing; Tetrahymena group I intron in knt gene, E. coli kanamycin selection, DiMSum; sequences stand for … in CUCUCU…GGAGGGAAAAGUUAUCAGGCAUGCACCUGGUAGCUAGUCUUUAAACCAAUAGAUUGCAUCGGUUUAAAAGGCAAGACCGUCAAAUUGCGGGAAAGGGGUCAACAGCCGUUCAGUACCAAGUCUCAGGGGAAACUUUGAGAUGGCCUUGCAAAGGGUAUGGUAAUAAGCUGACGGACAUGGUCCUAACCACGCAGCCAAGUCCUAAGUCAACAGAUCUUCUGUUGAUAUGGAUGCAGUUCACAGACUAAAUGUCGGUCGGGGAAGAUGUAUUCUUCUCAUAAGAUAUAGUCGGACCUCUCCUUAAUGGGAGCUAGCGGAUGAAGUGAUGCAACACUGGAGCCGCUGGGAACUAAUUUGUAUGCGAAAGUAUAUUGAUUAGUUUUGGAGUACUCGUGGUCG
Method in brief: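 Colonies from six replicate transformations of E. coli BL21(DE3) were pooled and amplicon-sequenced on an Illumina HiSeq 2500. The library placed an intron with all eight P1ex-region nucleotides randomised inside the knt kanamycin-resistance gene on pET-22b(+), and cells grew overnight at 37°C or 30°C on LB agar with or without 25 μg/mL kanamycin (plus 100 μg/mL carbenicillin, 50 μM IPTG, 0.2% rhamnose). Fitness is the DiMSum error-weighted combination of wild-type-normalised replicate fold changes, kanamycin versus none.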

Sequence	self-splicing fitness (ln) (30 °C)	self-splicing fitness (ln) (37 °C)
UCUCAGCAAUAUUACGAAUU	-3.12 ± 0.13	-1.77 ± 0.15
ACCCAGCAAUAUUACGUGGA	-0.54 ± 0.048	0.15 ± 0.057
CGAGAGCAAUAUUACGGGUG	-2.95 ± 0.15	-2.01 ± 0.16
AACAAGCAAUAUUACGGGAU	-2.27 ± 0.098	-1.01 ± 0.1
UUUAAGCAAUAUUACGAUGG	-1.05 ± 0.11	-0.525 ± 0.14
GGUGAGCAAUAUUACGUGAA	-1.76 ± 0.36	-1.27 ± 0.32
UGUAAGCAAUAUUACGCACC	-0.744 ± 0.36	0.286 ± 0.37
GCCGAGCAAUAUUACGUAGU	-1.34 ± 0.14	-0.503 ± 0.16
GGUAAGCAAUAUUACGGUUA	-0.532 ± 0.12	-0.38 ± 0.096
CUUUAGCAAUAUUACGGUGA	–	-2.08 ± 0.3
AUAUAGCAAUAUUACGUCUU	-0.0336 ± 0.1	-0.378 ± 0.1
GUGUAGCAAUAUUACGCUAG	-3.53 ± 0.31	-1.88 ± 0.36
GUUCAGCAAUAUUACGCACA	1.48 ± 0.34	-1.71 ± 0.49
GUCGAGCAAUAUUACGUAAA	-2.73 ± 0.29	-0.959 ± 0.27
ACACAGCAAUAUUACGAGUU	-3.49 ± 0.14	-2.18 ± 0.14
ACUAAGCAAUAUUACGCAUC	-3.13 ± 0.28	-1.54 ± 0.2
UCCAAGCAAUAUUACGGUUG	-3.43 ± 0.13	-3.04 ± 0.19
GUACAGCAAUAUUACGGCAG	-4.02 ± 0.2	-2.33 ± 0.17
UUCCAGCAAUAUUACGGACA	-0.469 ± 0.068	-0.0722 ± 0.077
UCUCAGCAAUAUUACGAGGA	-3.23 ± 0.26	-1.77 ± 0.14

Sequence	self-splicing fitness (ln) (30 °C)	self-splicing fitness (ln) (37 °C)
ACUGAGCAAUAUUACGACAG	-0.882 ± 0.091	-0.105 ± 0.12
UUGGAGCAAUAUUACGGUGC	-1.64 ± 0.31	–
UGCCAGCAAUAUUACGAGCU	-1.17 ± 0.075	-0.631 ± 0.098
GUGAAGCAAUAUUACGUCUG	-1.29 ± 0.12	-0.0242 ± 0.2
GUAGAGCAAUAUUACGAAAC	0.2 ± 0.34	-0.546 ± 0.32
AGCGAGCAAUAUUACGCUCU	-3.64 ± 0.35	-2.61 ± 0.29
CGAGAGCAAUAUUACGUUUC	-2.76 ± 0.25	-2.59 ± 0.27
GCACAGCAAUAUUACGCUCA	-1.08 ± 0.088	-0.585 ± 0.1
UCCGAGCAAUAUUACGAGAA	-1.91 ± 0.35	-2.27 ± 0.38
UAUCAGCAAUAUUACGUGGA	-1.05 ± 0.098	-0.739 ± 0.099
GACGAGCAAUAUUACGCGUA	-1.82 ± 0.12	-1.95 ± 0.098
CGGGAGCAAUAUUACGCAAA	–	-2.01 ± 0.35
UGUGAGCAAUAUUACGCGGG	–	-2.31 ± 0.26
UCAUAGCAAUAUUACGCAAC	-3.77 ± 0.39	-1.48 ± 0.32
GGGUAGCAAUAUUACGAUUA	-0.341 ± 0.13	-0.00462 ± 0.1
AGGAAGCAAUAUUACGACGG	-1.98 ± 0.17	-0.95 ± 0.23
AAAAAGCAAUAUUACGCCUC	–	-1.18 ± 0.22
UUUCAGCAAUAUUACGAUCC	–	-0.887 ± 0.39
UAUUAGCAAUAUUACGAGCU	-2.63 ± 0.26	0.924 ± 0.21
UGUAAGCAAUAUUACGCCCA	-0.177 ± 0.18	0.0098 ± 0.2
